Measurements taken from patent US20200031919A1 (SUZHOU KANOVA BIOPHARMACEUTICAL, published 2020).

Legend:
human IL-17A [1] = molecular target: T1, human IL-17A (human, UniProt Q16552 24-155); assay: blocking ELISA: 0.5 ug/ml hIL-17A coated, antibody titrated, then 10 ug/ml hIL17RA-mIgG2aFc (blocked ligand partner); OD450 falls from about 1.3 to a lower plateau of about 0.67
T1 construct: Commercial recombinant protein; also called hIL-17A; CTLA-8
T1 sequence (looked up): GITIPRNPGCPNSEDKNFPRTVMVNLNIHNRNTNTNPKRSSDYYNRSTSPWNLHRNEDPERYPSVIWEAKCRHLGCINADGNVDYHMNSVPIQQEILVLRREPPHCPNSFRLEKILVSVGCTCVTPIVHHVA
Experimental: The effect of the anti-IL17A/F antibody (produced in Example 2) on the binding of IL-17A, IL-17F or IL17A/F to the IL-17 receptor was tested by ELISA. IL-17A, IL-17F or IL-17A/F was coated in 96 well plate with 50 μl/well protein solution (protein concentration was […]) at 4° C. overnight. The wells were blocked with 1% BSA in PBST (tween 0.05%) by 200 μl/well at room temperature for 1 hour. The wells were washed 3 times with PBST. The anti-IL17A/F antibody and isotype control antibody human IgG1 (Biolegend cat# 403102) were diluted by PBS from 30 μg/ml down to 0.0005 μg/ml ([…]). The antibodies were added into the corresponding wells (50 μl/well) and incubated at room temperature for 4 hours. The wells were washed 3 times with PBST. hIL17RA-mIgG2aFc (10 μg/ml, in-house production according to standard molecular biology technology, Carson S, Molecular Biology Techniques, 2012) were added into each well (50 μl/well) and incubated at room temperature for 1 hour. The wells were washed 3 times with PBST. Goat anti-human IgG-HRP (1:5000 in PBS, EASYBIO Cat# BE0102) were added into each well (50 μl/well) and incubated at room temperature for 30 min. The wells were washed 6 times with PBST. […] The plate was read at 450 nm and 570 nm.

human IL-17F [2] = molecular target: T2, human IL-17F (human, UniProt Q96PD4 31-163); assay: ELISA, human IL-17F coated at 2 µg/ml
T2 construct: Commercial recombinant protein; also called hIL-17F
T2 sequence (looked up): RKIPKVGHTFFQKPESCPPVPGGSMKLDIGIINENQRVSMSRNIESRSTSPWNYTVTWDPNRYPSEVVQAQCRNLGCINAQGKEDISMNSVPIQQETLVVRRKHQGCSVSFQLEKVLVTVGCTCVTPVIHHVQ
Experimental: (§1) MaxiSorp 96-well plates (NUNC # 449824, www.thermofisher.com) were coated with 2 μg/ml human IL-17A (Cell Signaling #89285F, www.cellsignal.com), human IL-17F (Cell Signaling #8906LC, www.cellsignal.com), human IL-17B (Peprotech #200-28, www.peprotech.com), human IL-17C (R&D systems #1234-IL-025/CF, www.rndsystems.com), human IL-17D ((Peprotech #200-27, www.peprotech.com), human IL-17E (R&D systems #1258-IL-025/CF, www.rndsystems.com) in 1× PBS (50 μl/well) respectively. Plates were incubated at 4° C. overnight. Coating solution was removed and plates were washed once with 200 μl/well PBST (1× PBS with 0.05% tween-20). Then 200 μl/well blocking buffer (1× PBS with 0.05% tween-20, 3% BSA) was added and incubated at room temperature for 1 hour. Blocking buffer was removed and plates were washed three times with 200 μl/well PBST (1× PBS with 0.05% tween-20). The anti-IL17A/F antibody, hIgG VH1-1/VL5, was diluted to 10, 3.33, 1.11, 0.37, 0.123, 0.041, 0.0137, 0.0046, 0.0015, 0.00031, 0.000102, 0.000034 μg/ml by 1× PBS and added to the plates (50 μl/well). Plates were incubated at room temperature for 2 hours. Antibodies in the wells were removed and plates were washed three times with 200 μl/well PBST (1× PBS with 0.05% tween-20). […] Plates were read at 450 nm. […]

human IL-17A [3] = molecular target: T1, human IL-17A; assay: ELISA, human IL-17A coated at 2 µg/ml
Experimental: as §1

human IL-17F [4] = molecular target: T2, human IL-17F; assay: cell-based or functional assay
IL-17A/F heterodimer = molecular target: T3, IL-17A/F heterodimer (UniProt Q16552 24-155; Q96PD4 31-163, limits assumed); assay: cell-based or functional assay
T3 sequence (looked up) 1: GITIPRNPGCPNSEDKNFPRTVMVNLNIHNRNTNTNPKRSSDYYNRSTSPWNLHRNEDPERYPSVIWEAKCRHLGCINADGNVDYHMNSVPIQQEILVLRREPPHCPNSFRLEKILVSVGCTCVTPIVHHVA
T3 sequence (looked up) 2: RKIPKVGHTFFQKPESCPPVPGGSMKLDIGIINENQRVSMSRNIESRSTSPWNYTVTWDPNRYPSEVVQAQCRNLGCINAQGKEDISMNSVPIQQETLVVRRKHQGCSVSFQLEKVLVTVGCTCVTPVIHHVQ

human IL-17A [5] = molecular target: T1, human IL-17A; assay: cell-based or functional assay
human IL-17D = molecular target: T4, human IL-17D (human, UniProt Q8TAD2 18-202, limits assumed); assay: ELISA, cytokine coated at 2 µg/ml
T4 construct: Commercial recombinant protein
T4 sequence (looked up): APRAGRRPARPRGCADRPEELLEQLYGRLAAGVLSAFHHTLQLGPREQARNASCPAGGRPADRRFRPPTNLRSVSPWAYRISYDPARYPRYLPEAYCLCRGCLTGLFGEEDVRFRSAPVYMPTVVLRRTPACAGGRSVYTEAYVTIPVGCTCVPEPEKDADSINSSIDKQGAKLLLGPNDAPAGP
Experimental: (§2) MaxiSorp 96-well plates (NUNC # 449824, www.thermofisher.com) were coated with 2 μg/ml human IL-17A (Cell Signaling #89285F, www.cellsignal.com), human IL-17F (Cell Signaling #8906LC, www.cellsignal.com), human IL-17B (Peprotech #200-28, www.peprotech.com), human IL-17C (R&D systems #1234-IL-025/CF, www.rndsystems.com), human IL-17D ((Peprotech #200-27, www.peprotech.com), human IL-17E (R&D systems #1258-IL-025/CF, www.rndsystems.com) in 1× PBS (50 μl/well) respectively. Plates were incubated at 4° C. overnight. Coating solution was removed and plates were washed once with 200 μl/well PBST (1× PBS with 0.05% tween-20). Then 200 μl/well blocking buffer (1× PBS with 0.05% tween-20, 3% BSA) was added and incubated at room temperature for 1 hour. Blocking buffer was removed and plates were washed three times with 200 μl/well PBST (1× PBS with 0.05% tween-20). The anti-IL17A/F antibody, hIgG VH1-1/VL5, was diluted to […], 0.000102, 0.000034 μg/ml by 1× PBS and added to the plates (50 μl/well). Plates were incubated at room temperature for 2 hours. Antibodies in the wells were removed and plates were washed three times with 200 μl/well PBST (1× PBS with 0.05% tween-20). Goat anti-human IgG(H&L)—HRP secondary antibody (Jackson Immuno Research #109-035-088, www.jacksonimmuno.com) was diluted 1:5000 in 1× PBS and added to each well (50 μl/well). Plates were incubated at room temperature for 1 hour. Secondary antibody was removed and plates were washed seven times with 200 μl/well PBST (1× PBS with 0.05% tween-20). 50 μl/well TMB (eBioscience # 85-00-4201-56, www.ebioscience.com) was added and plates were incubated at room temperature for several minutes. Then 50 μl/well 2N H₂SO₄ was added to stop the reaction. Plates were read at 450 nm. […] So, the hIgG VH1-1/VL5 antibody has binding specificity to human IL-17A and 17F and has no cross-reactivity to other IL-17 family members.

human IL-17C = molecular target: T5, human IL-17C (human, UniProt Q9P0M4 19-197); assay: ELISA, cytokine coated at 2 µg/ml
T5 construct: Commercial recombinant protein
T5 sequence (looked up): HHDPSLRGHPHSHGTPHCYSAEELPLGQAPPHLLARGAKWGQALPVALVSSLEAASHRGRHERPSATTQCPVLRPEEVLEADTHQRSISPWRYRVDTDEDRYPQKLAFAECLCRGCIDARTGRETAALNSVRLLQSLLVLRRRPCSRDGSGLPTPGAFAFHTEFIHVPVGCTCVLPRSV
Experimental: as §2

human IL-17E = molecular target: T6, human IL-17E (human, UniProt Q9H293 33-177); assay: ELISA, cytokine coated at 2 µg/ml
T6 construct: Commercial recombinant protein; also called IL-25
T6 sequence (looked up): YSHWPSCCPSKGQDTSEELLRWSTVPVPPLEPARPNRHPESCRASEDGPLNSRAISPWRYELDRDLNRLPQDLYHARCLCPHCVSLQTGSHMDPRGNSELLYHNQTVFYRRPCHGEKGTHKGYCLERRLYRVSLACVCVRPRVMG
Experimental: as §2

B1: anti-IL17A/F antibody hIgG VH1-1/VL5 (antibody, V domains shown)
VH: QFQLVQSGAEVKKPGASVKVSCKASGYTFTDYNLNWVRQAPGKGLEWMGVIHPDYGTTSYNQKFKDRVTMTVDTSTSTVYMELSSLRSEDTAVYYCVRYDYGDAMDYWGQGTLVTVSS
VL: DIVMTQSPLSLSVTPGQPASISCRSSQSLVHSNGNTYLHWYLQKPGQPPQLLIYKVSNRFSGVPDRFSGSGSGTDFTLKISRVEAEDVGVYYCSQSTHVPLTFGQGTKLEIKR
notes: also called VH1-1/VL5 mAb; hIgGc VH1-1/VL5
Work on B1 yielded an IC50 (human IL-17A [1]) of 0.72 nM, an EC50 (human IL-17F [2]) of 0.047 nM and an EC50 (human IL-17A [3]) of 0.039 nM. The “IC50 of inhibition of IL-17F-induced IL-6 production in HFF-1 cells” value (human IL-17F [4]) was 1.77 nM, the “IC50 of inhibition of IL-17A/F heterodimer-induced IL-6 production in HFF-1 cells” value (IL-17A/F heterodimer) was 0.99 nM and the “IC50 of inhibition of IL-17A-induced IL-6 production in HFF-1 cells” value (human IL-17A [5]) was 1.73 nM. B1: no binding (human IL-17D); no binding (human IL-17C); no binding (human IL-17E).
